# Measurements reported in doi:10.1101/2022.08.24.505111 (bioRxiv, 2022).
# B1: Chloramphenicol acetyltransferase III (CATIII+GG construct) (enzyme)
# chain: SGGNYTKFDVKNWVRREHFEFYRHRLPCGFSLTSKIDITTLKKSLDDSAYKFYPVMIYLIAQAVNQFDELRMAIKDDELIVWDSVDPQFTVFHQETETFSALSCPYSSDIDQFMVNYLSVMERYKSDTKLFPQGVTPENHLNISALPWVNFDSFNLNVANFTDYFAPIITMAKYQQEGDRLLLPLSVQVHHAVCDGFHVARFINRLQELCNSKLK
# Molecular target: the molecule itself
# Experiment: crystal structure
protein,measurement,value
B1,stoichiometry N,3
